Measurements from publication PMC8703375, “Polar Interactions at the Dimer–Dimer Interface of Methionine Adenosyltransferase MAT I Control Tetramerization” (International Journal of Molecular Sciences, 2021).
“And” between values parts separate entries of the source, which are not always exact repeats. Equal entries are not always repeated.

B1: wild-type MATα1 (SSRL), rat methionine adenosyltransferase catalytic subunit (enzyme)
chain: not shown
notes: methionine adenosyltransferase catalytic subunit MATα1, rat; the rat MATα1 ORF in plasmid pSSRL-T7N; Found as homo-dimers (MAT III) and homo-tetramers (MAT I) in an equilibrium that depends on protein concentration; also called MAT I (homo-tetramer); MAT III (homo-dimer); source: E. coli BL21(DE3), IPTG-induced, in soluble fraction
B2: MATα1 Q81T mutant (enzyme)
chain: not shown
notes: methionine adenosyltransferase catalytic subunit MATα1, rat; ORF of pSSRL-T7N with a point mutation; source: E. coli BL21(DE3), IPTG-induced, in soluble fraction
B3: MATα1 R85L mutant (enzyme)
chain: not shown
notes: as for B2
B4: MATα1 R85L–E112L double mutant (enzyme)
chain: not shown
notes: methionine adenosyltransferase catalytic subunit MATα1, rat; ORF of pSSRL-T7N with two point mutations; source: E. coli BL21(DE3), IPTG-induced, in soluble fraction
B5: MATα1 R85E mutant (enzyme)
chain: not shown
notes: as for B2
B6: MATα1 N106A mutant (enzyme)
chain: not shown
notes: as for B2
B7: MATα1 R85L–T63V double mutant (enzyme)
chain: not shown
notes: as for B4
B8: MATα1 E112L mutant (enzyme)
chain: not shown
notes: as for B2
B9: MATα1 T63V mutant (enzyme)
chain: not shown
notes: as for B2

Biological target: the molecule itself
Test: SEC; analytical gel filtration (AGFC): soluble fractions of E. coli at 0.5 mg/mL (100 µL) on Superose 12 10/30 HR in 50 mM Tris/HCl pH 8, 10 mM MgSO4, 1 mM EDTA, 150 mM KCl, 0.3 mL/min; fractions read by dot-blot with anti-MATα1 antiserum; homo-dimers and homo-tetramers separated by size

Row | Protein | stoichiometry N
1 | B1 | 2 and 4

Biological target: the molecule itself
Test: hydrophobic chromatography on phenyl Sepharose; soluble fractions of E. coli at 0.5 mg/mL (2 mL) on phenyl Sepharose in 50 mM Tris/HCl pH 8, 10 mM MgSO4, 1 mM EDTA; tetramers in the flowthrough, dimers eluted with 50% (v/v) DMSO; dot-blot with anti-MATα1 antiserum, dimer/tetramer ratio by densitometry

Row | Protein | stoichiometry N
2 | B2 | 4
3 | B3 | 2 and 4
4 | B4 | 2
5 | B5 | 2
6 | B6 | 4
7 | B7 | 2
8 | B8 | 4
9 | B9 | 2
